Test system: MS2 coat protein
Experiment: apparent KD of MS2 coat protein; designed switch direction (-1 OFF switch, 1 ON switch): -1; higher = weaker reporter binding
Procedure, shortened: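 Stalled E. coli RNA polymerase transcribed designed RNA switches on Illumina chips, which were then titrated with SNAP-549-labelled MS2 coat protein, doubling from 0.7 or 1.5 nM to 3 µM. Steps lasted from 0.8–1.5 h at the lowest concentration to 10–20 min at the highest. The apparent KD is each design's median over clusters of curve-fitted normalised fluorescence.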

[1] = input ligand: microRNA oligo, concentration not stated
[2] = Eterna round: R95, input ligand: FMN 200 uM
[3] = Eterna round: R95, input ligand: microRNA oligo, concentration not stated
[4] = Eterna round: R95, input ligand: none

Sequence	apparent KD of MS2 coat protein (input ligand: FMN 200 uM) [nM]	apparent KD of MS2 coat protein (input ligand: none) [nM]	apparent KD of MS2 coat protein [1] [nM]	apparent KD of MS2 coat protein [2] [nM]	apparent KD of MS2 coat protein [3] [nM]	apparent KD of MS2 coat protein [4] [nM]
CGGAGUUAGGAGGAUAUGACGAACGCACGUCGUUCAGAAGGCCUAACAUGAGGAUCACCCAUGUGCUUAACACG [Eternabot (L2) Solution 59] (Eterna round: R97, puzzle: Exclusion 6)	48.7	35.7				
CGGAUGUUAGGAUAUUAGUAGUAGUCAGAAAAGACUAUUACUGAGAAGGAACAUGAGGAUCACCCAUGUUUCCG [Mat - Exclusion 4 - Eli Mod - D44] (Eterna round: R97, puzzle: Exclusion 4)	17	15.4				
CGGCGACAUGAGGAUCACCCAUGUGAGGAUAUGACGGGAAAAGCGUGAGCAGUUUGUAUCAGAAGGCGGGUAGG [salish99_ex1_r4_080] (Eterna round: R97, puzzle: Exclusion 1)	37.2	33.6				
CGGCGGGUCGCGCUGGUCCACAUGAGGAUCACCCAUGUUCCGGCACGCUGAAGGCACACGCUUUUUGCUCGUCUUAU [Sensor V1 S1] (Eterna round: R97, puzzle: Sensor, turn-off variant 1)	32.2	35				
CGGGCCGGCCUUCCGGCCGGCCCGACAUGAGGAUCACCCAUGUAGGAUAUCCCGGCUGCCGGCCGGGAGAAGGGCGUGCGUCCU [-50.4, -49.5 kcal, 14% A] (Eterna round: R96, puzzle: Exclusion NG 3)	101	91.6	53.6			
CGGUCACUAGGAUAUCAGGAAAACUACAUGAGGAUCACCCAUGUACUGAGUGUAGGAGACUGAGAAGGAGUUCUUA [EX5 C.4] (Eterna round: R97, puzzle: Exclusion 5)	31.5	22.3				
CGGUGACGGGUGAGGAUAUCGUGUUCGAAAGAACGUGAGAAGGCACAUGAGGAUCACCCAUGUGAUCCUCAUCG [Omei Ex4B A31] (Eterna round: R97, puzzle: Brourd's mod of Exclusion 4)	412	56.1				
CGGUGUAAGUCAGGAUAUGAGCGCAACUGACGAUCAGAAGGGACACAUGAGGAUCACCCAUGUGAUUUCUCAAUAUUAUACAUC [Prohibition 90 - Jieux - Exclusion NG 1] (Eterna round: R96, puzzle: Exclusion NG 1)	30.7	23.1	14.4			
CGGUGUAGAGGAUAUACGUGAAUUUUGUUAUAUAAUAAUUUACAUGAGGAUCACCCAUGUAGAAGGCUAUAGCG [JR_Ex2_Sub084] (Eterna round: R97, puzzle: Exclusion 2)	23.4	24.2				
CGGUUGUGAGGAUAUACAUGAGGAUCACCCAUGUCCAUCCUUUCGGUAACGAUAGAACGUAGAAGGCGCACCGU [Eternabot (L2) Solution 55] (Eterna round: R97, puzzle: Exclusion 3)	24.4	16				
CGUAAGCUAGGAUAUGCUUUGGGAAAGCAUUCCUUCGAUAAACUUGAGGAUCACCCAAGUAGAAGGAGCUUACA [salish99_ex2_r4_012] (Eterna round: R97, puzzle: Exclusion 2)	18.2	12.3				
CGUACUAACACGAAAGUGUUAGUACAAUAAGCUUGUGAAACAUGAGGAUCACCCAUGUCCUCAUAAGCUCGUCUUAA [salish99_TOv2_r3_006] (puzzle: Sensor v3, turn-off variant 2)				14.1	268	12.1
CGUAGCAAAGUGAGGAUAUCUAGAGCCUCGGCUCUAGAGAAGGCACAUGAGGAUCACCCAUGUGAUUAGCUACG [BmEx4/9-A2] (Eterna round: R97, puzzle: Brourd's mod of Exclusion 4)	173	24.1				
CGUAUCUUUCACGUGAGUAGUGGGUGCAACAGGUGGGUCACAUGAGGAUCACCCAUGUACUCACUUGCUCGUCUUAU [Grok-var2-07] (puzzle: Sensor v3, turn-off variant 2)				24	14	21.8
CGUCCACUUGAGGAUCACCCAAGUUAGGAUAUCUCCCAGCUCGCAUGUGCGGUUGGUCAGAGAAGGAACCAGGG [Ravereed] (Eterna round: R97, puzzle: Exclusion 1)	49.5	29				
CGUCGACAUGUAGGAUAUCUGCACGAUUAGUGCAGAGAAGGACAUGAGGAUCACCCAUGUAGAUCACGACGAAUUAAUUUAAUU [ENG1/6-C1] (Eterna round: R96, puzzle: Exclusion NG 1)	476	527	298			

Sequence	apparent KD of MS2 coat protein (input ligand: FMN 200 uM) [nM]	apparent KD of MS2 coat protein (input ligand: none) [nM]	apparent KD of MS2 coat protein [1] [nM]	apparent KD of MS2 coat protein [2] [nM]	apparent KD of MS2 coat protein [3] [nM]	apparent KD of MS2 coat protein [4] [nM]
CGUCUGUAAGGAUAUGGUAGCAUUUACAUGAGGAUCACCCAUGUUACAUGGGACUAGUGAUUAGAAGGUACGAACG [EX5 #55] (Eterna round: R97, puzzle: Exclusion 5)	276	322				
CGUCUGUCAGGAUAUAGUUACAUAGACAUGAGGAUCACCCAUGUGACGUGGGACUAGUGACUAGAAGGGACGAACG [EX5 #71] (Eterna round: R97, puzzle: Exclusion 5)	58.7	28.8				
CGUCUGUGAGGAUAUGGUAUCGUUUACAUGAGGAUCACCCAUGUUACAUGGGACUAGAGACUAGAAGGUACGGACG [EX5 #48] (Eterna round: R97, puzzle: Exclusion 5)	461	391				
CGUGACUCAGGAUAUCGAUUAUAUCACAUGAGGAUCACCCAUGUCCAGCGAAAGCUGGAGUGAGAAGGGAGUCACG [Fiskers Ex 5 - 49] (puzzle: Exclusion 5)				47.6	107	109
CGUGCGUAUGUGAGGAUAUGCUGGUCCUUGGAUCAGCAGAAGGCACAUGAGGAUCACCCAUGUGGUGUCGUACG [salish99_Bmod_Ex4_018] (puzzle: Brourd's mod of Exclusion 4)				18.7	182	395
CGUGGACAUGAGGAUCACCCAUGUGAGGAUAUCGGCUGGUACGUGUUGGCUGGCAUCUCGAGAAGGCACAUAGU [Exclusion 1 V62] (puzzle: Exclusion 1)					40.8	
CGUGGUAGGCAGGAUAUUUUAGACAAUUACUUGAAAGAAGGGCCUACAUGAGGAUCACCCAUGUGCUCUUCUUG [EX6 B.3] (Eterna round: R97, puzzle: Exclusion 6)	16.9	16.8				
CGUGUCUGAUAGGAUAUGACUGUUCAUAGAUGGUUAGAAGGAUCGACAUGAGGAUCACCCAUGUAGGGCUAGCG [Eternabot (L1) Solution 65] (Eterna round: R97, puzzle: Exclusion 6)	104	219				
CUAAGUCGAGGAUAUGCAUGGUGACAUGAUGCCGAUGCACGACAUGAGGAUCACCCAUGUAGAAGGCGACUUAG [Eternabot (L2) Solution 50] (Eterna round: R97, puzzle: Exclusion 2)	8.04	835				
CUAAUACAUCAGGAUAUGAUAGCUUAUAGCAUAUCAGAAGGGAUGACAUGAGGAUCACCCAUGUCAAAGGGUGA [eternacac ex6r4 sub18] (Eterna round: R97, puzzle: Exclusion 6)	130	590				
CUACAUCGAGGAUAUGCAAACGUAAACAUGAGGAUCACCCAUGUGACGUCAUAUUACGUAGUAGAAGGCGAAAAUA [Anlein] (Eterna round: R97, puzzle: Exclusion 5)	20.2	15.8				
CUAGUCCGAGGAUAUAUUAAGUGAUACAUGAGGAUCACCCAUGUUAUUUAAUGGAUAUUAAUAGAAGGCGGACUAG [Mat - Exclusion 5 - JL mod - D78] (puzzle: Exclusion 5)				42.6	32.1	31.3
CUAUGCAAAGUAAGGAUAUGCUUCCGGAAACGGAGGCAGAAGGUACAUGAGGAUCACCCAUGUUAAACGCAUAG [Explosion 4 - Jieux - Brourd's mod of Exclusion 4] (Eterna round: R97, puzzle: Brourd's mod of Exclusion 4)	16.8	12.8				
CUAUUACGAGGAUAUGAUUUAAGUAACAUGAGGAUCACCCAUGUUUUUCCGUUGUUAUGUUCAGAAGGCGUAUUAU [JR_E5_Sub023] (puzzle: Exclusion 5)				86.1	35.6	38.8
CUAUUGGCAGGAUAUGCUUUUUUAGACAUGAGGAUCACCCAUGUGAUGAAUAUUGGGUUUGCAGAAGGGCCUGAAU [JR_E5_Sub039] (puzzle: Exclusion 5)					64.2	
